The target of this test is recombinant myostatin (R&D Systems) (UniProt O14793). Put plainly: SPR; Biacore 3000, CM5 chip, about 2000 RU of ligand (ActRIIB-Fc or myostatin) amine-coupled by EDC/NHS; analyte 6.25-100 nM in HBS-EP (0.01 M HEPES pH 7.4, 0.15 M NaCl, 3 mM EDTA, 0.005% P20); 21°C, 30 µL/min; association 180 s, dissociation 300 s. In general terms: SPR reads the build-up and loss of mass on a sensor chip optically.

What is called Kd is the constant that tells how readily two partners part at equilibrium. The koff is the rate constant with which the complex falls apart. What is called kon is the second-order rate constant of association.

Chain of UniProt O14793 (O14793 267-375): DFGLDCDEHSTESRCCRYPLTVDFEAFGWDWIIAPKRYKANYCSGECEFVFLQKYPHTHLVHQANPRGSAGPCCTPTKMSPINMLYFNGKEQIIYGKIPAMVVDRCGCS

Regarding “recombinant putative mature sheep myostatin splice variant (rMSV, aa 275-321) (domain or fragment)”, the Kd was 0.0979 nM, the koff was determined as 4.32e-06 s⁻¹ and the kon was 44100 M⁻¹ s⁻¹.

These data come from paper PMC3846833.
